According to patent US20220185894A1 (F STAR THERAPEUTICS, published 2022):

Key:
[1] = target: T1, murine PD-L1 expressed on cells (mouse, UniProt Q9EP73 19-290); test: flow cytometry on HEK cells expressing murine PD-L1
T1 construct: also called murine PD-L1 HEK
Method: The affinity of the mAb² (all containing the LALA mutations) binding to cell expressed murine LAG-3 or murine PD-L1 was determined using flow cytometry. HEK cells expressing murine LAG-3 or murine PD-L1 grown in DMEM (Life Technologies, 61965-026) containing 10% FBS (Life Technologies, 10270-1-6), 100 μg/ml Hygromycin B (Melford Laboratories Ltd, Z2475), 15 μg/ml Blasticidin (Melford Laboratories Ltd, B1105) and 1 μg/ml Doxycyclin (Sigma, D9891) were detached from tissue culture flasks using cell dissociation buffer (Life Technologies, 13151-014) and seeded in V-bottom 96-well plates (Costar, 3897) at 2×10⁵ cells/well. The plates were centrifuged at 1500 rpm for 3 min at 4° C. to pellet the cells. A dilution series of the mAb² (or control mAb) were incubated with the cells in a 60 μl volume for 1 h at 4° C. The plates were washed and secondary antibody (Anti-human Fc-488, Jackson ImmunoResearch, 109-546-098 for mAb² or Anti-Rat IgG (H+L), Alexa Fluor 488, ThermoFisher, A-11006 for anti-LAG-3 control, C9B7W) was diluted 1:1000 in PBS and 50 μl was added to the cells for 30 min at 4° C. (plates were kept in the dark). […] The plates were read using Canto II flow cytometer (BD Bioscience). Dead cells were excluded and the fluorescence in the FITC channel (488 nm/530/30) was measured. […] The plates were read on a BD FACSCanto II cytometer (BD Biosciences) and the data analysed using FlowJo.

[2] = target: T2, mouse LAG-3 expressed on cells (mouse, UniProt Q61790 24-521); test: flow cytometry on HEK cells expressing murine LAG-3
T2 construct: also called mLAG-3; murine LAG-3 HEK
T2 sequence: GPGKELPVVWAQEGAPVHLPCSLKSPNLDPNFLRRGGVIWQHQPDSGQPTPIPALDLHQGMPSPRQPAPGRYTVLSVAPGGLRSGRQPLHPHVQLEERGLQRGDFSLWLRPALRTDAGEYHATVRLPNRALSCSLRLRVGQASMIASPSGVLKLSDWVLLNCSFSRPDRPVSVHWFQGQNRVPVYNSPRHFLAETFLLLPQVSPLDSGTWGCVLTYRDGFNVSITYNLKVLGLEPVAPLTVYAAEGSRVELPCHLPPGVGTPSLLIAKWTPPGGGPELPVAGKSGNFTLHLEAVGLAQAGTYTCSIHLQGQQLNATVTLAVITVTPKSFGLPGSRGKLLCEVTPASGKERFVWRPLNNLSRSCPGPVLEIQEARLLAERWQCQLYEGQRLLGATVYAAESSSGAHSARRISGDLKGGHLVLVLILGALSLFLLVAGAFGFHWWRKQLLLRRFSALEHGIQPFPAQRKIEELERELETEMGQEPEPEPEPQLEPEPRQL
Method: The affinity of the mAb² (all containing the LALA mutations) binding to cell expressed murine LAG-3 or murine PD-L1 was determined using flow cytometry. HEK cells expressing murine LAG-3 or murine PD-L1 grown in DMEM (Life Technologies, 61965-026) containing 10% FBS (Life Technologies, 10270-1-6), 100 μg/ml Hygromycin B (Melford Laboratories Ltd, Z2475), 15 μg/ml Blasticidin (Melford Laboratories Ltd, B1105) and 1 μg/ml Doxycyclin (Sigma, D9891) were detached from tissue culture flasks using cell dissociation buffer (Life Technologies, 13151-014) and seeded in V-bottom 96-well plates (Costar, 3897) at 2×10⁵ cells/well. The plates were centrifuged at 1500 rpm for 3 min at 4° C. to pellet the cells. A dilution series of the mAb² (or control mAb) were incubated with the cells in a 60 μl volume for 1 h at 4° C. The plates were washed and secondary antibody (Anti-human Fc-488, Jackson ImmunoResearch, 109-546-098 for mAb² or Anti-Rat IgG (H+L), Alexa Fluor 488, ThermoFisher, A-11006 for anti-LAG-3 control, C9B7W) was diluted 1:1000 in PBS and 50 μl was added to the cells for 30 min at 4° C. (plates were kept in the dark). The plates were washed then cells were resuspended in 50 μl FACS Cell Fix (BD Bioscience, 340181) for 15 minutes, then washed and resuspended in 100 μl PBS containing 1 μg/ml DAPI (Biotium, 40043). The plates were read using Canto II flow cytometer (BD Bioscience). Dead cells were excluded and the fluorescence in the FITC channel (488 nm/530/30) was measured. The data was fit using log (agonist) vs response in GraphPad Prism Software. The plates were read on a BD FACSCanto II cytometer (BD Biosciences) and the data analysed using FlowJo.

[3] = target: T2, mouse LAG-3 expressed on cells; test: flow cytometry on HEK cells expressing mouse LAG-3
Method: HEK cells expressing mLAG-3 grown in DMEM (Life Technologies, 61965-026) containing 10% FBS (Life Technologies, 10270-1-6), 100 μg/ml Hygromycin B (Melford Laboratories Ltd, Z2475), 15 μg/ml Blasticidin (Melford Laboratories Ltd, B1105) and 1 μg/ml Doxycyclin (Sigma, D9891) were detached from tissue culture flasks using cell dissociation buffer (Life Technologies, 13151-014). Cells were collected by centrifuged at 1500 rpm for 3 min at 4° C. to pellet the cells and then resuspended in 1×DPBS then seeded in V-bottom 96-well plates (Costar, 3897) at 1.2×10⁵ cells/well in 30 μl. A 1:1 volume of a dilution series of the mAb² (or control mAb) was added and incubated with the cells for 1 h at 4° C. The plates were washed and secondary antibody (Anti-human Fc-488, Jackson ImmunoResearch, 109-546-098) was diluted 1:1000 in PBS and 60 μl was added to the cells for 30 min at 4° C. (plates were kept in the dark). The plates were then washed and the cells resuspended in 60 μl PBS containing 1 μg/ml DAPI (Biotium, 40043). The plates were read using Canto II flow cytometer (BD Bioscience). Dead cells were excluded and the fluorescence in the FITC channel (488 nm/530/30) was measured. The data was fitted using log (agonist) vs response in GraphPad Prism Software.

[4] = target: T3, human FcγRI (R&D Systems, 1257-FC) (human, UniProt P12314 16-288); test: SPR, Biacore T200; FcγR immobilised, 200 µg/ml injected
T3 construct: Bought recombinant protein
T3 sequence (P12314 16-288 limits assumed): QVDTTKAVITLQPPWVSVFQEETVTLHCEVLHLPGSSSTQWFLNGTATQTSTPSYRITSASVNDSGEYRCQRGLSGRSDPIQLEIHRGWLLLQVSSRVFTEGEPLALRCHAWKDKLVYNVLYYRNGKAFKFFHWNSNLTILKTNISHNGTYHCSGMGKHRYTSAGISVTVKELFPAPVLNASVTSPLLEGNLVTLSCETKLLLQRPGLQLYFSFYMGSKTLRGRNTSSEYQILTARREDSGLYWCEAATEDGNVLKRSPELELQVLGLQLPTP
Method: (§1) The introduction of the LALA mutation in the CH2 domain of human IgG1 is known to reduce Fc γ receptor binding (Bruhns, P., et al. (2009); and Xu, D. et al. (2000)). […] The human FcγR binding assay was performed on a Biacore T200 instrument (GE Healthcare) using the Fcabs in the mock mAb² format. […] For each immobilized chip a flow cell was left blank for background subtraction. FcγR were immobilized using a concentration of 5 μg/ml in sodium acetate pH5 (ForteBio, 18-1069) and injected at a flow rate of 10 μl/min in 15 second cycles until the required immobilization level was reached.
(§2) The flow cells were regenerated by injecting 10 mM sodium hydroxide (VWR, 28244.262) at a flow rate of 100 μl/min for 30 seconds. The data analysis was performed with BiaEvaluation software version 3.2 RC1 by double referencing against the blank flow cell (without immobilized FcγR) and subtracting a buffer cycle from test mAb².

[5] = target: T4, human FcγRIIIa (R&D Systems, 4325-FC) (human, UniProt P08637 17-208); test: as above
T4 construct: Bought recombinant protein
T4 sequence (P08637 17-208 limits assumed): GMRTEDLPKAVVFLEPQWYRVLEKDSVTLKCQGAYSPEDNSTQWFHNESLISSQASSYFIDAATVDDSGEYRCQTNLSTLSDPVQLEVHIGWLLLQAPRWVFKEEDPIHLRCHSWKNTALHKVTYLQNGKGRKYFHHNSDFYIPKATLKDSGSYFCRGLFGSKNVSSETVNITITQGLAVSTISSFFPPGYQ
Method: as §1, §2

[6] = target: T5, cynomolgus LAG-3 expressed on cells (cynomolgus monkey, UniProt P18627 24-525 (human entry)); test: flow cytometry on DO11.10 cells expressing cynomolgus LAG-3
T5 construct: also called cLAG-3; cyno LAG-3
T5 chain: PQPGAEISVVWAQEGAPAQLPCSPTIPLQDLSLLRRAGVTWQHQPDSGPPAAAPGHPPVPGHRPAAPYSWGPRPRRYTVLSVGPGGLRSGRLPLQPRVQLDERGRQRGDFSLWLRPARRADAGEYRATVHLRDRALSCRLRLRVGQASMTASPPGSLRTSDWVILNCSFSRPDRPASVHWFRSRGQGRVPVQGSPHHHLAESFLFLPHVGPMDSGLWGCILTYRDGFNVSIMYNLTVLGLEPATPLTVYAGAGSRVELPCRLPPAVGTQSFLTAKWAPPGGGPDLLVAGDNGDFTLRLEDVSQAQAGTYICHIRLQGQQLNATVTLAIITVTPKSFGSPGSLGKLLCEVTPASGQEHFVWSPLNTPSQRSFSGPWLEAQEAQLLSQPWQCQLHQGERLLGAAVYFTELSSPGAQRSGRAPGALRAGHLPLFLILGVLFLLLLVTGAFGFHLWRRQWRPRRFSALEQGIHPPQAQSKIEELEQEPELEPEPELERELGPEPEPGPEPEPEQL
Method: DO11.10:LAG-3 cell suspensions were prepared in PBS+2% BSA (Sigma, A7906) and seeded at […] with 50 μl/well in V-bottomed 96-well plates (Costar, 3897). […] The plates were washed and 100 μl/well of secondary antibody (anti-human Fc-488 antibody, Jackson ImmunoResearch, 109-546-098) diluted 1:1000 in PBS+2% BSA was then added and incubated for 30 mins at 4° C. in the dark. The plates were washed and resuspended in 100 μl of PBS containing DAPI (Biotium, 40043) at […]. The plates were read using Canto II flow cytometer (BD Bioscience). The dead cells were excluded and the fluorescence in the FITC channel (488 nm/530/30) was measured. The data was fit using log (agonist) vs response in GraphPad Prism Software.

[7] = target: T6, human FcγRIIb/c (R&D Systems, 1875-CD) (human, UniProt P31994 46-217); test: SPR, Biacore T200; FcγR immobilised, 500 µg/ml injected
T6 construct: Bought recombinant protein
T6 sequence (looked up): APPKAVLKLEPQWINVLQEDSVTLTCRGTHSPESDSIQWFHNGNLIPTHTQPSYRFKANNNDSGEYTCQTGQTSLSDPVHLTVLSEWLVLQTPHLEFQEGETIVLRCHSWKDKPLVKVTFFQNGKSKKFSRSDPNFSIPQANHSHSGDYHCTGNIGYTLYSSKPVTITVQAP
Method: as §1, §2

[8] = target: T7, human FcγRIIa (R&D Systems, 1330-CD) (human, UniProt P12318 36-218, limits assumed); test: as above
T7 construct: Bought recombinant protein
T7 sequence (looked up): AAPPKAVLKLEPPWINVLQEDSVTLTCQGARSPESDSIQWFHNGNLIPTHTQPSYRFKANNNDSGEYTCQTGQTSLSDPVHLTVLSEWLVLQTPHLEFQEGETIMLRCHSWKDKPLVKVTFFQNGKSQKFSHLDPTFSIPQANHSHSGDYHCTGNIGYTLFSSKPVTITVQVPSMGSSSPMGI
Method: as §1, §2

T1 sequence (Q9EP73 19-290 limits assumed): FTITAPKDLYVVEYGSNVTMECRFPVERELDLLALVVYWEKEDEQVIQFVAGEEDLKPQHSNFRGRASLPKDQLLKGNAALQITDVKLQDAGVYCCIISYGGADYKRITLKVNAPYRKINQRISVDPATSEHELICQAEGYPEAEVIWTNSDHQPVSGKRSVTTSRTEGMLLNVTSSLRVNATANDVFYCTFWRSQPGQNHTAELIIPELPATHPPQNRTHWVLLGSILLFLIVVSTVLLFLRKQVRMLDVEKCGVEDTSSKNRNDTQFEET

B1: anti-mouse LAG-3/PD-L1 mAb2 FS18-7-108-29/S1 with LALA mutation (bispecific antibody)
heavy: not shown
light: DIQMTQSPSSLSASVGDRVTITCRASQDVSTAVAWYQQKPGKAPKLLIYSASFLYSGVPSRFSGSGSGTDFTLTISSLQPEDFATYYCQQYLFTPPTFGQGTKVEIKRTVAAPSVFIFPPSDEQLKSGTASVVCLLNNFYPREAKVQWKVDNALQSGNSQESVTEQDSKDSTYSLSSTLTLSKADYEKHKVYACEVTHQGLSSPVTKSFNRGEC
notes: also called FS18-29/S1
- EC50 [1]: 11.9 nM
- EC50 [2]: 2.27 nM

B2: anti-mouse LAG-3/PD-L1 mAb2 FS18-7-108-35/S1 with LALA mutation (bispecific antibody)
heavy: not shown
light: DIQMTQSPSSLSASVGDRVTITCRASQDVSTAVAWYQQKPGKAPKLLIYSASFLYSGVPSRFSGSGSGTDFTLTISSLQPEDFATYYCQQYLFTPPTFGQGTKVEIKRTVAAPSVFIFPPSDEQLKSGTASVVCLLNNFYPREAKVQWKVDNALQSGNSQESVTEQDSKDSTYSLSSTLTLSKADYEKHKVYACEVTHQGLSSPVTKSFNRGEC
notes: also called FS18-35/S1
- EC50 [1]: 12.3 nM
- EC50 [2]: 3.84 nM

B3: anti-human LAG-3/FITC mock mAb2 FS18-7-9/4420 comprising LALA mutation (bispecific antibody, human IgG1, kappa, L234A L235A)
heavy: EVKLDETGGGLVQPGRPMKLSCVASGFTFSDYWMNWVRQSPEKGLEWVAQIRNKPYNYETYYSDSVKGRFTISRDDSKSSVYLQMNNLRVEDMGIYYCTGSYYGMDYWGQGTSVTVSSASTKGPSVFPLAPSSKSTSGGTAALGCLVKDYFPEPVTVSWNSGALTSGVHTFPAVLQSSGLYSLSSVVTVPSSSLGTQTYICNVNHKPSNTKVDKKVEPKSCDKTHTCPPCPAPEAAGGPSVFLFPPKPKDTLMISRTPEVTCVVVDVSHEDPEVKFNWYVDGVEVHNAKTKPREEQYNSTYRVVSVLTVLHQDWLNGKEYKCKVSNKALPAPIEKTISKAKGQPREPQVYTLPPSWDEPWGEDVSLTCLVKGFYPSDIAVEWESNGQPENNYKTTPPVLDSDGSFFLYSKLTVPYDRWVWPDEFSCSVMHEALHNHYTQKSLSLSPG
light: DVVMTQTPLSLPVSLGDQASISCRSSQSLVHSNGNTYLRWYLQKPGQSPKVLIYKVSNRFSGVPDRFSGSGSGTDFTLKISRVEAEDLGVYFCSQSTHVPWTFGGGTKLEIKRTVAAPSVFIFPPSDEQLKSGTASVVCLLNNFYPREAKVQWKVDNALQSGNSQESVTEQDSKDSTYSLSSTLTLSKADYEKHKVYACEVTHQGLSSPVTKSFNRGEC
notes: Human IgG1 format; also called FS18-7-9/4420LALA; FS18-7-09/4420LALA
- EC50 [3]: 19 nM
- binding response at end of association (RU) [4]: 1.4 RU
- binding response at end of association (RU) [5]: 6.6 RU
- EC50 [6]: 0.6 nM
- binding response at end of association (RU) [7]: -8.5 RU
- binding response at end of association (RU) [8]: -9.8 RU

B4: control anti-human LAG-3 mAb 25F7 (antibody, human IgG1, kappa, L234A L235A, V domains shown)
VH: QVQLQQWGAGLLKPSETLSLTCAVYGGSFSDYYWNWIRQPPGKGLEWIGEINHRGSTNSNPSLKSRVTLSLDTSKNQFSLKLRSVTAADTAVYYCAFGYSDYEYNWFDPWGQGTLVTVSS
VL: EIVLTQSPATLSLSPGERATLSCRASQSISSYLAWYQQKPGQAPRLLIYDASNRATGIPARFSGSGSGTDFTLTISSLEPEDFAVYYCQQRSNWPLTFGQGTNLEIKR
notes: also called benchmark anti-human LAG-3 mAb
- binding result [3]: no binding
